From patent US11723968B2

Columns and labels:
[1] = molecular target: Andes virus glycoprotein Gc, wild type (Andes virus (Andes orthohantavirus CHI-7913 isolate))
[2] = molecular target: Andes virus glycoprotein Gc, wild type (Andes virus (Andes orthohantavirus CHI-7913 isolate)); remark: listed apart in the source

Substance: Andes virus glycoprotein Gn, wild type
- melting temperature (Tm) of the temperature-induced Gn/Gc dissociation [1]: 37.7 ° C.
- melting temperature (Tm) of (Gn/Gc)4 dissociation [2]: 36.3 ° C.
